# Assay results taken from patent US20160040149A1, “Compositions Having Dicamba Decarboxylase Activity and Methods of Use” (priority 2013, published 2016).
# Test: DNA shuffling libraries: 14CO2 capturing assay in 384-well format, fold activity of backbone (Megatable 2)
# Settings: relative to backbone SEQ ID NO: 133 (DDEC0201)
row,Molecule,Fold Activity [fold]
1,"364 (protein, Dicamba decarboxylase variant) MAQGKVALEEHFAIPETLQDSAGFVPSEYLKELQHRLLDIQDTRLKLMDAHGIETMILSLAAPAVQAIPDRRKAIEIARRANDFLAEECAKRPDRFLAFAALPLQDPDAATEELQRTVNDLGFVGALVNGFSQEGDGQTPLYYDLPQYRPFWGEVEKLDVPFYLHPRNPLPQDSRIYDGHPWLLGPTWAFAQETAVHALRLMASGLFDEHPRLNIILGHMGEGLPYMMYRIDHRIAWVKLPPRYPAKRRFMDYFNENFHITTSGNFRTQTLIDAILEIGADRILFSTDWPFENIDHAADWFNATSIAEADRVKIGRTNARRLFKLDGA",1.0
2,"356 (protein, Dicamba decarboxylase variant) MAQGKVALEEHFAIPETLQDSAGFVPGDYWKELQHRLLDIQDTRLKLMDAHGIETMILSLAAPAVQAIPDRRKAIEIARRANDMLAEECAKRPDRFLAFAALPLQDPDAATEELQRCVNDLGFVGALVNGFSVEGDGQTPLYYDLPQYRPFWGEVEKLDVPFYLHPRNPLPQDSRIYDGHPWLLGPTWAFAQETAVHALRLMASGLFDEHPRLNIILGHLGEGLPYMMYRIDHRIAWVHEPPRYPAKRRFMDYFNENFHITTSGNFRTQTLIDAILEIGADRILFSTDWPFENIDHAADWFNATSIAEADRLKIGRTNARRLFKLDGD",1.0
3,"359 (protein, Dicamba decarboxylase variant) MAQGKVALEEHFAIPETLNDSAGFVPGDYWKELQHRLLDIQDTRLKLMDAHGIETMILSLAAPAVQAIPDRRKAIEIARRANDFLAEECAKRPDRFLAFAALPLQDPDAATEELQRCVNDLGFVGALVNGFSQEGDGQTPLYYDLPQYRPFWGEVEKLDVPFYLHPRNPLPQDSRIYDGHPWLLGPTWAFAQETAVHALRLMASGLFDEHPRLNIILGHLGEGLPYMMYRIDHRIAWVKLPPRYPAKRRFMDYFNENFHITTSGNFRTQTLIDAILEIGADRILFSTDWPFENIDHAADWFNETSIAEADRVKIGRTNARRLFKLDGA",1.3
4,"365 (protein, Dicamba decarboxylase variant) MAQGKVALEEHFAIPETLQDSAGFVPGDYWKELQHRLLDIQDTRLKLMDAHGIETMILSLAAPAVQAIPDRRKAIEIARRANDFLAEECAKRPDRFLAFAALPLQDPDAATEELQRCVNDLGFVGALVNGFSQEGDGQTPLYYDLPQYRPFWGEVEKLDVPFYLHPRNPLPQDSRIYDGHPWLLGPTWAFAQETAVHALRLMASGLFDEHPRLNIILGHMGEGLPYMMYRIDHRIAWVHEPPRYPAKRRFMDYFNENFHITTSGNFRTQTLIDAILEIGADRILFSTDWPFENIDHAADWFNATSIAEADRVKIGRTNARRLFKLDGA",1.6
5,"360 (protein, Dicamba decarboxylase variant) MAQGKVALEEHFAIPETLQDSAGFVPGDYWKELQHRLLDIQDTRLKLMDAHGIETMILSLAAPAVQAIPDRRQAIEIARRANDFLAEECAKRPDRFLAFAALPLQDPDAATEELQRCVNDLGFVGALVNGFSVEGDGQTPLYYDLPQYRPFWGEVEKLDVPFYLHPRNPLPQDSRIYDGHPWLLGPTWAFAQETAVHALRLMASGLFDEHPRLNIILGHLGEGLPYMMYRIDHRIAWVKLPPRYPAKRRFMDYFNENFHITTSGNFRTQTLIDAILEIGADRILFSTDWPFENIDHAADWFNATSIAEADRLKIGRTNARRLFKLDGA",1.1
6,"363 (protein, Dicamba decarboxylase variant) MAQGKVALEEHFAIPETLQDSAGFVPGDYWKELQHRLLDIQDTRLKLMDAHGIETMILSLAAPGVQAIPDRRKAIEIARRANDILAEECAKRPDRFLAFAALPLQDPDAATEELQRCVNDLGFVGALVNGFSQEGDGQTPLYYDLPQYRPFWGEVEKLDVPFYLHPRNPLPQDSRIYDGHPWLLGPTWAFAQETAVHALRLMASGLFDEHPRLNIILGHMGEGLPYMMYRIDHRIAWVQEPPRYPAKRRFMDYFNENFHITTSGNFRTQTLIDAILEIGADRILFSTDWPFENIDHAADWFNATSIAEADRVKIGRTNARRLFKLDGA",0.9
7,"366 (protein, Dicamba decarboxylase variant) MAQGKVALEEHFAIPETLQDSAGFVPGDYWKELQHRLLDIQDTRLKLMDAHGIETMILSLAAPAVQAIPDRVQAIEIARRANDFLAEECAKRPDRFLAFAALPLQDPDAATEELQRCVNDLGFVGALVNGFSQEGDGQTPLYYDLPQYRPFWGEVEKLDVPFYLHPRNPLPQDSRIYDGHPWLLGPTWAFAQETAVHALRLMASGLFDEHPRLNIILGHMGEGLPYMMYRIDHRIAWVKLPPRYPAKRRFMDYFNENFHITTSGNFRTQTLIDAILEIGADRILFSTDWPFENIDHAADWFNATSIAEADRLKIGRTNARRLFKLDLD",0.9
8,"362 (protein, Dicamba decarboxylase variant) MAQGKVALEEHFAIPETLQDSAGFVPGDYWKELQHRLLDIQDTRLKLMDAHGIETMILSLAAPAVQAIPDRRKAIEIARRANDMLAEECAKRPDRFLAFAALPLQDPDAATEELQRCVNDLGFVGALVNGFSQEGDGQTPLYYDLPQYRPFWGEVEKLDVPFYLHPRNPLPQDSRIYDGHPWLLGPTWAFAQETAVHALRLMASGLFDEHPRLNIILGHMGEGLPYMMYRIDHRIAWVHEPPRYPAKRRFMDYFNENFHITTSGNFRTQTLIDAILEIGADRILFSTDWPFENIDHAADWFNATSIAEADRVKIGRTNARRLFKLDLD",0.9
9,"361 (protein, Dicamba decarboxylase variant) MAQGKVALEEHFAIPETLQDSAGFVPGDYWKELQHRLLDIQDTRLKLMDAHGIETMILSLAAPAVQAIPDRRKAIEIARRANDFLAEECAKRPDRFLAFAALPLQDPDAATEELQRCVNDLGFVGALVNGFSQEGDGQTPLYYDLPQYRPFWGEVEKLDVPFYLHPRNPLPQDSRIYDGHPWLLGPTWAFAQETAVHALRLMASGLFDEHPRLNIILGHMGEGLPYMMYRIDHRIAWVKLPPRYPAKRRFMDYFNENFHITTSGNFRTQTLIDAILEIGADRILFSTDWPFENIDHAADWFNATSIAEADRLKIGRTNARRLFKLDGA",1.0
10,"358 (protein, Dicamba decarboxylase variant) MAQGKVALEEHFAIPETLQDSAGFVPGDYWKELQHRLLDIQDTRLKLMDAHGIETMILSLAAPAVQAIPDRRKAIEIARRANDFLAEECAKRPDRFLAFAALPLQDPDAATEELQRCVNDLGFVGALVNGFSVEGDGQTPLYYDLPQYRPFWGEVEKLDVPFYLHPRNPLPQDSRIYDGHPWLLGPTWAFAQETAVHALRLMASGLFDEHPRLNIILGHMGEGLPYMMYRIDHRIAWVKLPPRYPAKRRFMDYFNENFHITTSGNFRTQTLIDAILEIGADRILFSTDWPFENIDHATAWFNATSIAEADRLKIGRTNARRLFKLDGA",0.9
11,"357 (protein, Dicamba decarboxylase variant) MAQGKVALEEHFAIPETLQDSAGFVPGDYWKELQHRLLDIQDTRLKLMDAHGIETMILSLAAPAVQAIPDRRKAIEIARRANDFLAEECAKRPDRFLAFAALPLQDPDAASEELQRCVNDLGFVGALVNGFSVEGDGQTPLYYDLPQYRPFWGEVEKLDVPFYLHPRNPLPQDSRIYDGHPWLLGPTWAFAQETAVHALRLMASGLFDEHPRLNIILGHMGEGLPYMMYRIDHRIAWVHEPPRYPAKRRFMDYFNENFHITTSGNFRTQTLIDAILEIGADRILFSTDWPFENIDHAADWFNATSIAEADRVKIGRTNARRLFKLDLD",1.4
